Results: publication PMC5082641

Legend:
[1] = target: SpyTag-EGFP-SdyTag (Streptococcus pyogenes | Streptococcus dysgalactiae); assay: covalent ligation read by SDS-PAGE and densitometry; step-wise reaction of dual-Tag constructs with SpyCatcher, 5 and 30 minutes; at 5 minutes aliquots given additional SpyCatcher or SdyCatcher DANG short for a further 25 minutes
[2] = target: SdyTag-EGFP (Streptococcus dysgalactiae); assay: kinetics of covalent ligation by SDS-PAGE and densitometry; equimolar Catcher and Tag-EGFP (10 uM for SpyTag-EGFP; 50 uM for SdyTag-EGFP by S3 and S4 Figs), 100 uM sodium phosphate buffer pH 7, 25°C; second order rate constants from Catcher depletion; triplicates
[3] = target: SpyTag-EGFP (Streptococcus pyogenes); assay: as above
[4] = target: SdyTag-EGFP (Streptococcus dysgalactiae); assay: covalent ligation read by SDS-PAGE and densitometry; 50 uM Catcher with 65 uM SdyTag-EGFP (1.3 equivalents), 100 uM sodium phosphate buffer pH 7, 25°C, 40 minutes; quenched with SDS-PAGE loading buffer and boiled; yield with respect to the limiting Catcher; triplicates

SpyCatcher (domain or fragment)
percent of products ligated twice [1]: < 10%
second order rate constant of covalent ligation [2]: 1 M⁻¹ s⁻¹
second order rate constant of covalent ligation [3]: 322 M⁻¹ s⁻¹
yield of ligated product after 40 minutes [4]: 7%
